Measured values: PMC10921760 (ACS sensors, 2023)

Molecular target: Recombinant Human Integrin α4β1 Protein, CF (human, UniProt P13612 35-977; P05556 21-728)
Assay: surface enhanced Raman spectroscopy

Chain of Recombinant Human Integrin α4β1 Protein, CF (P13612 35-977, chain 1 of 2): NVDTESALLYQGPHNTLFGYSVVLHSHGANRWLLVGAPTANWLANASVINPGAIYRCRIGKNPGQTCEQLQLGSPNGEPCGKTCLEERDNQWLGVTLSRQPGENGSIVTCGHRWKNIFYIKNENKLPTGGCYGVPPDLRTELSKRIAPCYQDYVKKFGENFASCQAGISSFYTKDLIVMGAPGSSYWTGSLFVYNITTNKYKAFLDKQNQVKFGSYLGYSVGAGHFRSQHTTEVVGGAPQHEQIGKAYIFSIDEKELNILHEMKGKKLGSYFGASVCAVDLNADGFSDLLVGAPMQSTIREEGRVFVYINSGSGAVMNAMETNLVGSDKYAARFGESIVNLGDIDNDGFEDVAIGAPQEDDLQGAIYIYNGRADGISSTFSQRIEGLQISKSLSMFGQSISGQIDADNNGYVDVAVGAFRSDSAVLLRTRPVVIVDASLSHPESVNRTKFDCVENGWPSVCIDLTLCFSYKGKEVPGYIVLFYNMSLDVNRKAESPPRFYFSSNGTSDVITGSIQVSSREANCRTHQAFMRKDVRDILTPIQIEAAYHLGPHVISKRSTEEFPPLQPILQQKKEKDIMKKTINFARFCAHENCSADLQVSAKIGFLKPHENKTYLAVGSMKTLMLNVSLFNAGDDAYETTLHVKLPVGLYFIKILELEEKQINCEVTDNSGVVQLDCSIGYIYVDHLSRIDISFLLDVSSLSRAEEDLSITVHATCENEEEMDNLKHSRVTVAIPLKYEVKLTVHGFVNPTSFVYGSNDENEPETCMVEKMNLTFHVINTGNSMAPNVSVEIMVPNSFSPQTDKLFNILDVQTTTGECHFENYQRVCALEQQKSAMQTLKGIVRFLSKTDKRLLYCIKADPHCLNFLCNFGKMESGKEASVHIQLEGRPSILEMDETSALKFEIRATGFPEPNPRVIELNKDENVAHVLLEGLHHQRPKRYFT
Chain of Recombinant Human Integrin α4β1 Protein, CF (P05556 21-728, chain 2 of 2): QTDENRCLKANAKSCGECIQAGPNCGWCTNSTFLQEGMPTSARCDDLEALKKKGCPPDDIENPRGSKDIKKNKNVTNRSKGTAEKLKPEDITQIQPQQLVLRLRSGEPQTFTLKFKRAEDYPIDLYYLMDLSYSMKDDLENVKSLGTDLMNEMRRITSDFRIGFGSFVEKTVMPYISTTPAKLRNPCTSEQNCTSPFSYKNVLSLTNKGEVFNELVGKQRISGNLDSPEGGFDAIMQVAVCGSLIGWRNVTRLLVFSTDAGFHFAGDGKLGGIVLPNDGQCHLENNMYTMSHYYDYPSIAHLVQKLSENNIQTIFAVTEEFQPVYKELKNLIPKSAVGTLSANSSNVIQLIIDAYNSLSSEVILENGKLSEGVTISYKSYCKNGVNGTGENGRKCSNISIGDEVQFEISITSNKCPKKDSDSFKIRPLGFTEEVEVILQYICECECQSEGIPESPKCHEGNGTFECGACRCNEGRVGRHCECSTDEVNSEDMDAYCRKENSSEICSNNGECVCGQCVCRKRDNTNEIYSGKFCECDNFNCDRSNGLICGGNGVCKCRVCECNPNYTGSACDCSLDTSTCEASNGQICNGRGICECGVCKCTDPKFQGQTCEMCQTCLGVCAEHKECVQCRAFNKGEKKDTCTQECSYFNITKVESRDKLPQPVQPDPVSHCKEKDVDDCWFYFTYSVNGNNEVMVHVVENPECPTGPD

- binding result: binds
B1: Cys-Asp-Pro-Gly-Tyr-Ile-Gly-Ser-Arg (CDPGYIGSR) (peptide)
peptide: CDPGYIGSR
modifications: not fully specified; functionalized onto gold coated magnetic nanoparticles (thiol chemistry of the Cys)
